The values below come from the FLAb antibody collection (doi:10.7554/elife.23156).

Bounds are passed on as bounds.

The chains are these.
B1: scFv; the commonest letter at each place (parent)
chain 1: EVKLDETGGGLVQPGRPMKLSCVASGFTFSDYWMNWVRQSPEKGLEWVAQIRNKPYNYETYYSDSVKGRFTISRDDSKSSVYLQMNNLRVEDMGIYYCTGSYYGMDYWGQGTSVTVS
chain 2: DVVMTQTPLSLPVSLGDQASISCRSSQSLVHSNGNTYLRWYLQKPGQSPKVLIYKVSNRFSGVPDRFSGSGSGTDFTLKISRVEAEDLGVYFCSQSTHVPWTFGGGTKLEIK

The variants in data set [1] derive from B1. Description: Kd (Tite-Seq). Conditions: with fluorescein; format: scFv 4-4-20, heavy + light.
In data set [2] the parent is B1. Nature of the data set: yeast surface expression (ratio to wild type); higher = more expressed. Conditions: format: scFv 4-4-20, heavy + light.

Usually Kd stands for the concentration at which binding is half-saturated. Take chain 1 D106A G109H: the Kd in data set [1] was no less than 10 µM. In addition, the yeast surface expression in data set [2] is 0.448.

Turning to chain 1 T28G Y32M, the Kd in data set [1] was no less than 10 µM. For the same variant, the yeast surface expression in data set [2] was 1.24.

For the variant chain 1 Y32M W36D, in data set [1], the dissociation constant Kd was no less than 10 µM. Besides, the yeast surface expression in data set [2] is 0.63.

Regarding chain 1 M34C N35I, the Kd in data set [1] was no less than 10 µM. The yeast surface expression in data set [2] is 0.462.

For chain 1 S101K Y102I, the Kd in data set [1] is no less than 10 µM. Also, the yeast surface expression in data set [2] amounted to 0.647.

Turning to chain 1 Y32A W33S V37G, the Kd in data set [1] is no less than 10 µM. Further, the yeast surface expression in data set [2] came to 0.472.

Consider chain 1 T28N, for which, in data set [1], the dissociation constant (Kd) turned out to be 0.00121 µM. The yeast surface expression in data set [2] worked out at 0.895.

Regarding chain 1 T28K S30K M34Y, the Kd in data set [1] was determined as 0.00575 µM. Moreover, the yeast surface expression in data set [2] came out at 0.855.

chain 1 Y32W M34N: in data set [1], the Kd came out at 0.205 µM. For the same variant, the yeast surface expression in data set [2] worked out at 0.386.

Turning to chain 1 G100M Y107G, the Kd in data set [1] was no less than 10 µM. For the same variant, in data set [2], the yeast surface expression was found to be 0.575.

As to chain 1 G104F, the Kd in data set [1] was no less than 10 µM. In data set [2], the yeast surface expression came out at 0.597.

chain 1 G104S Y107K: in data set [1], the Kd is no less than 10 µM. Besides, the yeast surface expression in data set [2] came out at 0.796.

For the variant chain 1 M34Q N35S, the Kd in data set [1] was no less than 10 µM. Also, the yeast surface expression in data set [2] was found to be 0.621.

With chain 1 G104R Y107R, in data set [1], the dissociation constant (Kd) was no less than 10 µM. In addition, the yeast surface expression in data set [2] was 0.263.

For chain 1 Y107H, the dissociation constant (Kd) in data set [1] is 0.00251 µM. In addition, the yeast surface expression in data set [2] was determined as 1.

As for chain 1 Y107K, the Kd in data set [1] was no less than 10 µM. In addition, the yeast surface expression in data set [2] amounted to 0.637.

Consider chain 1 D31Y M34K, for which the dissociation constant (Kd) in data set [1] is 0.676 µM. The yeast surface expression in data set [2] is 0.834.

Turning to chain 1 W33C N35W, in data set [1], the Kd is 5.37 µM. In addition, the yeast surface expression in data set [2] came out at 0.456.

chain 1 M105K Y107L G109V: the dissociation constant Kd in data set [1] is no less than 10 µM. Besides, the yeast surface expression in data set [2] was determined as 0.223.

As to chain 1 M34I V37Q, in data set [1], the dissociation constant (Kd) worked out at 0.00184 µM. Besides, the yeast surface expression in data set [2] was found to be 0.474.

As to chain 1 D31E Y32P, the Kd in data set [1] is no less than 10 µM. Further, the yeast surface expression in data set [2] is 0.77.

Regarding chain 1 S30Y Y32P, the Kd in data set [1] is no less than 10 µM. The yeast surface expression in data set [2] was determined as 0.691.

chain 1 D31G N35A: the dissociation constant (Kd) in data set [1] is no less than 10 µM. For the same variant, the yeast surface expression in data set [2] turned out to be 0.664.

For the variant chain 1 S30E, in data set [1], the dissociation constant Kd came out at 0.000962 µM. Besides, the yeast surface expression in data set [2] was found to be 0.948.

Consider chain 1 S30G, for which, in data set [1], the Kd came out at 0.00067 µM. The yeast surface expression in data set [2] stood at 1.12.

On to chain 1 M105L G109C, for which the dissociation constant (Kd) in data set [1] is no less than 10 µM. Besides, in data set [2], the yeast surface expression was determined as 0.26.

chain 1 D31C V37K: the equilibrium dissociation constant (Kd) in data set [1] was no less than 10 µM. Also, the yeast surface expression in data set [2] came to 0.453.

Take chain 1 W33M V37L: in data set [1], the Kd was no less than 10 µM. The yeast surface expression in data set [2] was determined as 0.553.

As for chain 1 W33M V37P, in data set [1], the Kd is no less than 10 µM. Also, the yeast surface expression in data set [2] amounted to 0.458.

Consider chain 1 D31V W33D, for which the Kd in data set [1] is no less than 10 µM. Also, the yeast surface expression in data set [2] came to 0.821.

chain 1 S101E G104S: in data set [1], the Kd was no less than 10 µM. Moreover, the yeast surface expression in data set [2] worked out at 0.804.

As for chain 1 Y32Q W36V, the dissociation constant Kd in data set [1] is no less than 10 µM. The yeast surface expression in data set [2] amounted to 0.479.

As for chain 1 F29L D31L, the Kd in data set [1] was no less than 10 µM. The yeast surface expression in data set [2] turned out to be 0.633.

For the variant chain 1 M105R W108A, the dissociation constant (Kd) in data set [1] is 7.33 µM. In addition, in data set [2], the yeast surface expression came out at 0.498.

For the variant chain 1 T28D D31L, the dissociation constant (Kd) in data set [1] worked out at 0.000804 µM. Besides, the yeast surface expression in data set [2] was 0.935.

Regarding chain 1 W36P V37Y, in data set [1], the Kd was no less than 10 µM. The yeast surface expression in data set [2] turned out to be 0.75.

Regarding chain 1 S101G Y102L, in data set [1], the dissociation constant Kd is no less than 10 µM. In addition, the yeast surface expression in data set [2] is 1.06.

Consider chain 1 D31T W33L, for which, in data set [1], the Kd was no less than 10 µM. The yeast surface expression in data set [2] came out at 0.518.

Take chain 1 W33F W36C: the equilibrium dissociation constant (Kd) in data set [1] was no less than 10 µM. For the same variant, the yeast surface expression in data set [2] stood at 0.455.

Take chain 1 Y32G M34E: the dissociation constant (Kd) in data set [1] is no less than 10 µM. Besides, the yeast surface expression in data set [2] stood at 0.194.

As for chain 1 W33V, in data set [1], the equilibrium dissociation constant (Kd) is no less than 10 µM. Besides, the yeast surface expression in data set [2] amounted to 0.944.

Regarding chain 1 F29I D31K, the Kd in data set [1] amounted to 0.00493 µM. For the same variant, the yeast surface expression in data set [2] turned out to be 0.958.

Take chain 1 S30R Y32Q: in data set [1], the Kd was no less than 10 µM. Further, the yeast surface expression in data set [2] is 1.13.

For chain 1 Y102L Y107S, the Kd in data set [1] is 5.96 µM. For the same variant, the yeast surface expression in data set [2] stood at 1.78.

As for chain 1 Y32K V37R, the Kd in data set [1] was no less than 10 µM. In addition, the yeast surface expression in data set [2] was 1.18.

Take chain 1 Y32A W33I M34T: the dissociation constant Kd in data set [1] is no less than 10 µM. Besides, the yeast surface expression in data set [2] was 0.444.

chain 1 W33C W36G: the Kd in data set [1] was no less than 10 µM. For the same variant, in data set [2], the yeast surface expression was 1.12.

Regarding chain 1 T28K W36R, in data set [1], the Kd was 0.0507 µM. For the same variant, the yeast surface expression in data set [2] came out at 0.393.

Consider chain 1 M34N W36Y, for which the dissociation constant Kd in data set [1] is no less than 10 µM. Further, the yeast surface expression in data set [2] was found to be 0.542.

In the case of chain 1 M105G D106R, in data set [1], the Kd is no less than 10 µM. Besides, the yeast surface expression in data set [2] is 0.434.

Consider chain 1 D106H Y107D, for which, in data set [1], the dissociation constant (Kd) was no less than 10 µM. For the same variant, the yeast surface expression in data set [2] is 0.284.

Consider chain 1 G109L, for which, in data set [1], the Kd is no less than 10 µM. The yeast surface expression in data set [2] came to 0.217.

Take chain 1 G109H: in data set [1], the Kd was no less than 10 µM. For the same variant, in data set [2], the yeast surface expression is 0.268.

Turning to chain 1 F29A M34S, in data set [1], the dissociation constant Kd was no less than 10 µM. Also, the yeast surface expression in data set [2] is 0.612.

In the case of chain 1 M105N, the dissociation constant (Kd) in data set [1] was found to be 0.0233 µM. The yeast surface expression in data set [2] was determined as 0.844.

Turning to chain 1 D31T M34E, the Kd in data set [1] came out at 0.0692 µM. The yeast surface expression in data set [2] came to 0.635.

Consider chain 1 W33E W36L, for which the equilibrium dissociation constant (Kd) in data set [1] was no less than 10 µM. Moreover, the yeast surface expression in data set [2] amounted to 0.622.

As to chain 1 S30R W33F M34V, the dissociation constant Kd in data set [1] stood at 0.105 µM. Besides, the yeast surface expression in data set [2] came out at 0.767.
